We go through two molecules from patent publication US20260259223A1 (NORDIC BIOSCIENCE A S, published 2026).

Sequences and labels used below:
T1: Elongated standard peptide (Elongated selection peptide) QDSGPEYADVV (human)
T1 construct: also called elongated peptide
T1 peptide: QDSGPEYADVV

T2: Truncated standard peptide (Truncated selection peptide) SGPEYADVV (human)
T2 construct: also called truncated peptide
T2 peptide: SGPEYADVV

T3: Non-sense standard peptide YRDDLKKLLE
T3 construct: also called non-sense peptide
T3 peptide: YRDDLKKLLE

T4: Non-sense coating peptide YRDDLKKLLE-Biotin
T4 construct: also called non-sense coater
T4 peptide: YRDDLKKLLE-{Biotin′}

B1: Standard peptide (Selection peptide) DSGPEYADVV (peptide)
peptide: DSGPEYADVV
notes: Synthetic peptide from Genscript; also called C6A6
B2: monoclonal antibody clone NBH-306-11 8E7-2C11-1F10-2C10 (antibody, mouse IgG1, kappa, V domains shown)
VH: EVKLVESGGDLVKPGGSLKLSCAASGFTFTSYAMSWVRQTPEKRLEWVASVTSGGTHYLDSVKGRFTISRDIARNILYLQMSSLRSEDTAMYFCARGVSFAYWGQGTLVTVSA
VL: DIVMTQSQKFMSTSVGDRVSVTCKASQNVGTDVVWYQQRPGQSPKALMYSASYRYSGVPDRFTGSGSGTDFTLTISNVQSEDLAEYFCQHYDNYPLTFGAGTKLELKR
notes: also called the mAb; C6A6 assay antibody

Primed or numbered codes have the meaning given here. Where no end group is shown, it is not given here. Biotin′ = not defined here

For assay [1], the target named is B2. In words: competitive CLIA: the free standard peptide competes with plate-coated …-K-Biotin for the HRP-labelled mAb (200 ng/mL). As for the experimental part: The development of a competitive chemiluminescence immunoassay (CLIA) targeting the C6A6 target sequence included several preliminary optimizing experiments where reagents, concentrations, incubation-time and -temperature were analyzed by several tests. […] The relative light units were measured at all wavelengths within 5 min on a microplate luminometer reader (SpectraMax M5, Molecular Devices, CA, USA). […] Data were analyzed using the SoftMax Pro version 7.0.3 software.
(§1) Two-fold dilutions of four human serum and two rat serum samples were used to assess linearity. Linearity was calculated as a percentage of recovery of the undiluted sample. Antibody specificity was calculated as percentage of signal inhibition by two-fold diluted standard peptide ([…] (SEQ ID NO: 1)), elongated peptide ([…] (SEQ ID NO: 2)), truncated peptide ([…] (SEQ ID NO: 3)), and non-sense peptide ([…] (SEQ ID NO: 17)). The intra- and inter-assay variation was determined by 10 independent runs of five quality controls and two kit controls run in double determinations.

Assay [2] concerns the target B1. In words: ELISA screening of hybridoma clones / specificity test. Background: ELISA stands for enzyme-linked immunosorbent assay.
For assay [3], the target named is T1, Elongated standard peptide (Elongated …). In words: competitive CLIA/ELISA (signal inhibition by two-fold diluted peptide). The method, then: (§2) The development of a competitive chemiluminescence immunoassay (CLIA) targeting the C6A6 target sequence included several preliminary optimizing experiments where reagents, concentrations, incubation-time and -temperature were analyzed by several tests. The final C6A6 competitive ELISA procedure was as follows: A 96-well streptavidin-coated white microplate (Greiner Bio-One, Kremsmünster, Austria) was coated with 3 ng/mL biotinylated synthetic peptide ([…]-K-Biotin (SEQ ID NO: 18)) dissolved in assay buffer (10 mM phosphate buffered saline (PBS), 1% bovine serum albumin, 0.1% Tween-20, 0.36% Bronidox, 4 g/L NaCl, adjusted to pH 7.4 at 20° C.) and incubated for 30 min at 20° C. with constant shaking (300 rpm) in darkness. Next, 20 μL/well of standard peptide (100 ng/ml) and samples were added to the appropriate wells, followed by the addition of 100 μL/well of HRP-labelled antibody (generated as described above) diluted in assay buffer to the concertation of 200 ng/ml and incubated for 1 h at 20° C. with constant shaking (300 rpm) in darkness. After each incubation step, wells were washed five times with standard washing buffer (20 mM Tris, 50 mM NaCl, pH 7.2). […] The relative light units were measured at all wavelengths within 5 min on a microplate luminometer reader (SpectraMax M5, Molecular Devices, CA, USA). […] Data were analyzed using the SoftMax Pro version 7.0.3 software.
as §1

For assay [4], the target named is T2, Truncated standard peptide (Truncated …). The description is as above. The method, then: as §2, §1
The target of assay [5] is T3, Non-sense standard peptide YRDDLKKLLE
The description is as above. The method, then:
as §2, §1

Assay [6] has as its target T4, Non-sense coating peptide …. In words: CLIA/ELISA on a streptavidin plate coated with the non-sense coating peptide.

By IC50 is commonly meant the point on the concentration scale where inhibition reaches its midpoint. The low end stands for inhibition by little substance, the high end for a need for much substance. With B1, the concentration for half-maximal inhibition (IC50) in assay [1] was 3.86 ng/mL.

As to B2, the binding result in assay [2] is reported as “binds”; in assay [3], “no binding”; in assay [4], “no binding”; in assay [5] it was “no binding”; in assay [6], “no binding”.
